Measured values from the Immune Epitope Database (IEDB).
Each block holds one sequence with its values, some of them ahead of it.

Experiments:
Assay in all cases: IEDB peptide-MHC binding, purified MHC/competitive/radioactivity; filed as Kd, often an IC50 or EC50 that approximates it; ≥ and ≤ were set here for values at or beyond the usual limits of such assays
HLA-A*02:03 = biological target: HLA-A*02:03
HLA-A*02:02 = biological target: HLA-A*02:02
HLA-A*02:06 = biological target: HLA-A*02:06
HLA-A*11:01 = biological target: HLA-A*11:01
HLA-A*31:01 = biological target: HLA-A*31:01
HLA-A*68:01 = biological target: HLA-A*68:01
HLA-A*33:01 = biological target: HLA-A*33:01
HLA-A*03:01 = biological target: HLA-A*03:01
[1] = source organism: Vaccinia virus WR
[2] = source organism: Mammarenavirus guanaritoense
[3] = source organism: Mammarenavirus juninense
[4] = source organism: Dengue virus 1 Brazil/97-11/1997
[5] = source organism: SARS coronavirus Tor2
[6] = source organism: Triticum aestivum

Sequence: STSNVITDQT
Kd (HLA-A*02:03; [1]): ≥ 70.4 µM
Kd (HLA-A*02:02; [1]): ≥ 53.6 µM
Kd (HLA-A*02:06; [1]): 10.8 µM

Sequence: TAEQLSKYV
Kd (HLA-A*02:03; [1]): 8.9 µM
Kd (HLA-A*02:02; [1]): 5.22 µM
Kd (HLA-A*02:06; [1]): ≥ 23.9 µM

Sequence: TCITSMAER
Kd (HLA-A*11:01; [2]): 17.4 µM
Kd (HLA-A*31:01; [2]): 0.559 µM
Kd (HLA-A*68:01; [2]): 0.243 µM
Kd (HLA-A*33:01; [2]): 2.63 µM
Kd (HLA-A*03:01; [2]): ≥ 67 µM

Sequence: TGINENYAK
Kd (HLA-A*11:01; [3]): 1.53 µM
Kd (HLA-A*31:01; [3]): ≥ 53.4 µM
Kd (HLA-A*68:01; [3]): 0.998 µM
Kd (HLA-A*33:01; [3]): ≥ 77.7 µM
Kd (HLA-A*03:01; [3]): ≥ 78 µM

Sequence: TISGNIYSA
Kd (HLA-A*02:03; [1]): 0.0189 µM
Kd (HLA-A*02:02; [1]): 0.0845 µM
Kd (HLA-A*02:06; [1]): 0.179 µM

Sequence: TLATGPLTTL
Kd (HLA-A*02:03; [4]): 0.00926 µM

Sequence: TLDTMDDMK
Kd (HLA-A*11:01; [1]): 0.466 µM
Kd (HLA-A*31:01; [1]): ≥ 77.9 µM
Kd (HLA-A*68:01; [1]): 0.373 µM
Kd (HLA-A*33:01; [1]): ≥ 77.7 µM
Kd (HLA-A*03:01; [1]): 11.8 µM

Sequence: TLILAPTRVV
Kd (HLA-A*02:03; source organism: Dengue virus 2 Jamaica/1409/1983): 0.0426 µM

Sequence: TLLCVLAAL
Kd (HLA-A*02:03; [5]): 0.0106 µM
Kd (HLA-A*02:02; [5]): 0.0081 µM
Kd (HLA-A*02:06; [5]): 0.00798 µM

Sequence: TLNEYKQLY
Kd (HLA-A*11:01; [1]): 0.124 µM
Kd (HLA-A*31:01; [1]): 1.35 µM
Kd (HLA-A*68:01; [1]): 1.36 µM
Kd (HLA-A*33:01; [1]): 7 µM
Kd (HLA-A*03:01; [1]): 0.0567 µM

Sequence: TLVPVLEKKV
Kd (HLA-A*02:03; [1]): 0.1 µM
Kd (HLA-A*02:02; [1]): 0.112 µM
Kd (HLA-A*02:06; [1]): 0.498 µM

Sequence: TMKAIEKDR
Kd (HLA-A*11:01; [1]): 2.62 µM
Kd (HLA-A*31:01; [1]): 0.227 µM
Kd (HLA-A*68:01; [1]): 0.511 µM
Kd (HLA-A*33:01; [1]): 0.675 µM
Kd (HLA-A*03:01; [1]): ≥ 25.9 µM

Sequence: TSLAIKNYYR
Kd (HLA-A*11:01; [1]): 0.000933 µM
Kd (HLA-A*31:01; [1]): 0.46 µM
Kd (HLA-A*68:01; [1]): 0.0058 µM
Kd (HLA-A*33:01; [1]): 0.258 µM
Kd (HLA-A*03:01; [1]): 0.118 µM

Sequence: TTAFFNTCK
Kd (HLA-A*11:01; [1]): 0.000492 µM
Kd (HLA-A*31:01; [1]): 0.226 µM
Kd (HLA-A*68:01; [1]): 0.000947 µM
Kd (HLA-A*33:01; [1]): 0.997 µM
Kd (HLA-A*03:01; [1]): 0.0462 µM

Sequence: VATFRDMLL
Kd (HLA-A*02:03; [1]): 9.94 µM
Kd (HLA-A*02:02; [1]): 2.53 µM
Kd (HLA-A*02:06; [1]): 7.72 µM

Sequence: VFYRSGTETK
Kd (HLA-A*11:01; [1]): ≥ 34.1 µM
Kd (HLA-A*31:01; [1]): 8.28 µM
Kd (HLA-A*68:01; [1]): ≥ 20.4 µM
Kd (HLA-A*33:01; [1]): 6.53 µM
Kd (HLA-A*03:01; [1]): ≥ 33.8 µM

Sequence: VIADYNYKL
Kd (HLA-A*02:03; [5]): 0.115 µM
Kd (HLA-A*02:02; [5]): 0.000477 µM
Kd (HLA-A*02:06; [5]): 0.0691 µM

Sequence: VILPDKIDGL
Kd (HLA-A*02:03; [1]): 10.8 µM
Kd (HLA-A*02:02; [1]): 8.09 µM
Kd (HLA-A*02:06; [1]): 0.24 µM

Sequence: VLCVKKFYK
Kd (HLA-A*11:01; [1]): 0.00882 µM
Kd (HLA-A*31:01; [1]): 0.00132 µM
Kd (HLA-A*68:01; [1]): 0.344 µM
Kd (HLA-A*33:01; [1]): 0.162 µM
Kd (HLA-A*03:01; [1]): 0.0252 µM

Sequence: VLGLGLSLK
Kd (HLA-A*11:01; [1]): 0.0257 µM
Kd (HLA-A*31:01; [1]): 1.57 µM
Kd (HLA-A*68:01; [1]): 9.65 µM
Kd (HLA-A*33:01; [1]): ≥ 26.8 µM
Kd (HLA-A*03:01; [1]): 0.00673 µM

Sequence: VMCGGSLYVK
Kd (HLA-A*11:01; [5]): 0.0466 µM
Kd (HLA-A*31:01; [5]): 0.648 µM
Kd (HLA-A*68:01; [5]): 8.48 µM
Kd (HLA-A*33:01; [5]): 16.3 µM
Kd (HLA-A*03:01; [5]): 0.0584 µM

Sequence: VQFSILNNPV
Kd (HLA-A*02:03; [1]): 0.369 µM
Kd (HLA-A*02:02; [1]): 0.131 µM
Kd (HLA-A*02:06; [1]): 0.186 µM

Sequence: VTSLAIKNY
Kd (HLA-A*11:01; [1]): 0.322 µM
Kd (HLA-A*31:01; [1]): ≥ 34.8 µM
Kd (HLA-A*68:01; [1]): 12.5 µM
Kd (HLA-A*33:01; [1]): ≥ 77.7 µM
Kd (HLA-A*03:01; [1]): ≥ 25.1 µM

Sequence: VVKDKIKLPT
Kd (HLA-A*02:03; [1]): 8.6 µM
Kd (HLA-A*02:02; [1]): ≥ 37.3 µM
Kd (HLA-A*02:06; [1]): ≥ 29.2 µM

Kd (HLA-A*11:01; [6]): 4.63 µM
Kd (HLA-A*31:01; [6]): 5.2 µM
Kd (HLA-A*68:01; [6]): ≥ 29.6 µM
Kd (HLA-A*33:01; [6]): ≥ 28.3 µM
Kd (HLA-A*03:01; [6]): 2.02 µM
Sequence: VVLQQHNIVH

Sequence: VVRDFENYVK
Kd (HLA-A*11:01; [1]): 0.0307 µM
Kd (HLA-A*31:01; [1]): 0.269 µM
Kd (HLA-A*68:01; [1]): 0.0713 µM
Kd (HLA-A*33:01; [1]): 8.05 µM
Kd (HLA-A*03:01; [1]): 0.0249 µM

Sequence: WLMWFIISIV
Kd (HLA-A*02:03; [5]): 0.00472 µM
Kd (HLA-A*02:02; [5]): 0.246 µM
Kd (HLA-A*02:06; [5]): 0.107 µM

Sequence: YAVLSEYETM
Kd (HLA-A*02:03; [1]): 9.63 µM
Kd (HLA-A*02:02; [1]): 0.157 µM
Kd (HLA-A*02:06; [1]): 1.21 µM

Sequence: YFISIYSRPK
Kd (HLA-A*11:01; [1]): 0.853 µM
Kd (HLA-A*31:01; [1]): 0.112 µM
Kd (HLA-A*68:01; [1]): 0.0252 µM
Kd (HLA-A*33:01; [1]): 0.107 µM
Kd (HLA-A*03:01; [1]): 0.22 µM

Sequence: YIEDELRRA
Kd (HLA-A*02:03; [1]): 0.259 µM
Kd (HLA-A*02:02; [1]): 1.76 µM
Kd (HLA-A*02:06; [1]): 1.23 µM

Sequence: YIIRRSGCR
Kd (HLA-A*11:01; [1]): 0.566 µM
Kd (HLA-A*31:01; [1]): 0.0293 µM
Kd (HLA-A*68:01; [1]): 0.0641 µM
Kd (HLA-A*33:01; [1]): 0.192 µM
Kd (HLA-A*03:01; [1]): 10.5 µM

Sequence: YIRRNMINKL
Kd (HLA-A*02:03; [1]): 0.0696 µM
Kd (HLA-A*02:02; [1]): 0.82 µM
Kd (HLA-A*02:06; [1]): 8.66 µM

Sequence: YIWIKNLETY
Kd (HLA-A*11:01; [1]): 3.44 µM
Kd (HLA-A*31:01; [1]): 1.74 µM
Kd (HLA-A*68:01; [1]): 0.161 µM
Kd (HLA-A*33:01; [1]): 4.48 µM
Kd (HLA-A*03:01; [1]): 1.46 µM

Sequence: YIWKSYVHI
Kd (HLA-A*02:03; [5]): 0.0129 µM
Kd (HLA-A*02:02; [5]): 0.0864 µM
Kd (HLA-A*02:06; [5]): 0.00889 µM

Sequence: YLALYNKYK
Kd (HLA-A*11:01; [5]): 1.32 µM
Kd (HLA-A*31:01; [5]): 0.941 µM
Kd (HLA-A*68:01; [5]): 0.913 µM
Kd (HLA-A*33:01; [5]): 7.98 µM
Kd (HLA-A*03:01; [5]): 0.201 µM

Sequence: YQVKTETTI
Kd (HLA-A*02:06; source organism: Dengue virus 4 Philippines/H241/1956): 0.0263 µM

Sequence: YSYATHHDK
Kd (HLA-A*11:01; [5]): 0.0305 µM
Kd (HLA-A*31:01; [5]): 3.47 µM
Kd (HLA-A*68:01; [5]): 0.0163 µM
Kd (HLA-A*33:01; [5]): ≥ 26.2 µM
Kd (HLA-A*03:01; [5]): 0.0164 µM

Sequence: YTLFQQTGR
Kd (HLA-A*11:01; [1]): 0.551 µM
Kd (HLA-A*31:01; [1]): 0.05 µM
Kd (HLA-A*68:01; [1]): 0.000384 µM
Kd (HLA-A*33:01; [1]): 0.0241 µM
Kd (HLA-A*03:01; [1]): 3.1 µM

Sequence: YVMCTGSFKL
Kd (HLA-A*02:06; [4]): 0.0188 µM

Sequence: YVVTTDISEM
Kd (HLA-A*02:06; [4]): 1.16 µM
